According to the nanobody polyreactivity screen of Harvey et al. (2022):

Assay: yeast display, Sf9 membrane polyspecificity reagent, FACS + sequencing; frameworks hold sequencing errors
Outline: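 Galactose induction of a Saccharomyces cerevisiae BJ5465 synthetic nanobody display library ran 36–48 hours. The cells were then stained for 1 hour at 4 °C with 10% biotinylated, detergent-solubilized Sf9 membrane reagent, pulled down on streptavidin microbeads and FACS-sorted into low and high (top ~1%) gates on expression and reagent-binding fluorescence. Labels for polyreactivity follow the gate of origin.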

Sequence	polyreactivity (PSR sort gate)
QVQLVVSGGGLVQAGGSLRLSCAASGSIFVPYAMGWYRQAPGKEREFVAAITRSSGSTYYADSVKGRFTISRDNAKNTVYLQMNSLKPEDTAVYYCAADFLLEFDYWGQGTQVTVSS	low polyreactivity
QVQLVESGGGLVQAGGSLRLSCAASGLTIITNAMGWYRQAPGKERELVAAISGTGGSTYYADSVKGRFTISRDNAKNTVYLQMNSLKPEDTAVYYCAAAPYTFWVGDSWGQGTQVTVSS	high polyreactivity
QVQLVESGGGLVQAGGSLRLSCAASGSIIKYYAMGWYRQAPGKERELVAAISWRGGRTYADSVKGRFTISRDNAKNTVYLQLNSLKPEDTAVYYCNARAPQGYGTHRSKYRWGPMGYWGQGTQVTVSS	high polyreactivity
QLQLVESGGVLVQAGGSLRLSCAASGSTFRYNAMGWYRQAPGKERELVASITWSGGDTYYADSVKGRFTISRDNAKNTVYLQMNSLKPEDTAVYYCAKKGYASRYFIYDYWGQGTQVTVSS	low polyreactivity
QVQLVESGGGLVQAGGSLRLSCAASGNTFWRYAMGWYRQAPGKERELVAAITYTSGSTYYADSVKGRFTISRDNAKNTVYLQMNSLKPEDTAVYYCAAESVYGSGYVFRYYYWGQGTQVSVSS	high polyreactivity
QVQLVESGGGLVQAGGSLRLSCAASGLILNYYTMGWYRQAPGKERELVATISSSTGSTYYADSVKGRFTISRDNAKNTVYLQMNSLKPEDTAVYYCAADHWSYWQIYDFWGQGTQVTVSS	low polyreactivity
QVQLVESGGGLVQAGGSLRLSCAASGRTFYRYAMGWYRQAPGKERELVAAITTSGGSTYYADSVKGRFTISRDNAKNTVYLQMNSLKPEDTAVYYCAATYYGYHIRDDYWGQGTQVTVSS	low polyreactivity
QVQLVESGGGLVQAGGSLRLSCAASGRIFEGYAMGWYRQAPGKEELVAAITSDASTYYADSVKGRFTISRDNAKNTVYLQMNSLKPEDTAVYYCAADTYDNDYYYWGQGTQVTVSS	high polyreactivity
QVQLVESGGGLVQAGGSLRLSCAASGSTFSPYAMGWYRQAPGKERELVANITISGGSTYYADSVKGRFTISRDNAKNTVYIQMNSLKPEDTAVYYCNADSLIRWLFTVVIFDYWGQGTLVTVSS	low polyreactivity
QVQLVESGGGLVQAGGSLRFSCAASGYIFYKYAMGWYRHAPGKERELVAAIRRSGGSTYYADSVKGRFTISRDNAKNTVYLQMNSLKPEDTAVYYCAARYFRGSYPMGYWGQGTQVTVSS	high polyreactivity
QVQLVESGGGLVQAGGSLRLSCAASGRTFGVYAMGWYRQAPGKERELVARIRYSGGTTRYADSVKGRFTISRDNAKNTVYLQMNSLKPEDTAVYYCAATNWWGTEYDYWGQGTQVTVSS	high polyreactivity
QVQLVESGGGLVQAGGSLRLSCAAYGSIIGVNAMGWYRPAPGKERELVAAISSTGGSTYYADSVKGRFTISRDNAKNTVYLQMNSLKPEDTAVYYCNTDYSKSIGDGYAGFDYWGQGTQVTVSS	low polyreactivity
QVQLVESGGGLVQAGGSLRLSCAASGSIFNGYDMGWYRQAPWKERELVAAISLSGDSTYYADSVKGRFTISRDNAKNTVYLQMNSLKPEDTAVYYCAKGTISSYSPYWYYDYSDYEYWGQGTQVTVSS	low polyreactivity
QVQLVESGGGLVQAGGSLRLSCAASGRIFNTYAMGWYRQAPAKERELVAAITSSGGSTYYADSVKGRFTISRDNAKNTVYLQMNSLKPEDTAVYYCNAGSLHRRYYYEGDYWGQGTQVTVSS	high polyreactivity
QVQLVESGGGLVQAGGSLRLSCAASGYTFGWYAMGWYRQAPGKERELVAAITSDGSTYYADSVKGRFTISRDNEKNTVYLQMNSLIPVDTAVYYCAADATFDSDWGQGTQVTVSS	low polyreactivity
QVQLVESGGGLVQAGGSLRLSCAASGRIFPYYAMGWYRQAPGKERELVASIRYSAVNTYYADSVKGRFTISRDNAKNTVYVQMNSLKPEDTAVYYCWYTQNTLGNYWGQGTQVTVSS	low polyreactivity
QVQHVESRGCLLQAGGSLRLSCAASGITFRYYTMGWYRQAPGKESELVAAITWSGSSTYYAVSVKGRFTISRDNAKNTVYLQMNSLKPEHTAVYYCAKPYHQRSAKVDYWGQGTQVTVSS	low polyreactivity
QVQLVESGGGLVQAGGSLRLSCAASGNIFFTNAMGWYRQAPGKERELVATISFRGTSTYYADSVKGRFTISRDNAKKTVYLQMNSLKPEDTAVYYCAARYSVFHRARVNLLGWGLYYWGQGTQVTVSS	low polyreactivity
QVHLVESGGGLVQAGGSLRLRCDASGSIFKPYARGWYRQAPGKERELVAGITAGGASTYYADSVKGRFTISRDNAKNTVYLQMNSLKPEDTAVYYCAAGDYQSGVRYDYWGQGTQVTVSS	low polyreactivity
QVQLVESGGVLVQAGGSLRLSCAASGRTFRYYVKGWYRRAPGKERELLASITSNGDSTYYADSVKGRFTISRDNAKNTVYLQMNSLKPEDTAVYYCAVRWRDYRGSYRGFEYWGQGTQVTVSS	high polyreactivity
QVQLVESGGGLVQAGGSLRLSCAASGFTAVGNAMGWYRPAPGKERELVASITNGGSTNYADSVKGRFTISRDNAKNTVYIQMNSLKPEDTAVYYCATDTYFDYTGALSHSGYYYWGQGTQVTVSS	low polyreactivity
QVQLVESGVRLVQAGGSLLLSCAASGFTFHKNDMGWYRQAPGKERELVATISKSGGSTYYADSVKGRFTISRDNAMNTVYLQMNSLKPEDTAVYYCARRYRDYGRYGYWGQGTQVTVSS	high polyreactivity

Sequence	polyreactivity (PSR sort gate)
QVQLVESGGGLVQAGGSLRLSCAASGRTFLPNAMGWYRQAPGKERELVAVITSGGSTNYADSVKGRFTISRDNAKNTVYLQMNSLKPEDTAVYYCASRRWSSSQGHWGKSAGYGYWGQGTQVTVSS	low polyreactivity
QVQLVESGGGLVQAGGSLRLSSAASGRTFPIYAMGWYRQAPGKERELVATITLNDGNTYYADSVKGRFTISRDNAKNTVYLQMNSLKPEDTAVYYCAAKGGWPWHYHYQKNSEYDYWGQGTQVTVSS	low polyreactivity
QVQLVESGGGLVQAGGSLRLSCAASGLIIWLYTMGWYRQAPGKERELVAAIDWSGGSTYYADSVKGRFTISRDNAKNTVYLQMNSLKPEYTAVYYCAADPEPSYRFDYWGQGTQVTVSS	low polyreactivity
QVQLVESGGGLVQAGGSLRFSCAASGSTTYRYAMGWYRQAPGKERELVAAISSRGGSTYYADSVKGRFTISRDNAKNTVYLQMNSLKPEDTAVYYCAVKDRYSFRYDYWGQGTQVTVSS	high polyreactivity
QVQLVESGGGLVQAGGSLRLSCAASGITFRRYAMGWYRQAPGKERELVAAITSSGGSTYYADSVKGRFSISRDNAKNTVYLQMNSLKPEDTAVYYCAARAYRVNWSSWYRSGYDYWGQGTQVTVSS	high polyreactivity
QVQLVESGVGIVQAGGSLRLSCAASGRIFDLYAMVWYRQAPGKEREFVAAISLSGGSTYYADSVKGRFTISRDNAKNTVYLQMNSLKPEDTAVYYCAADHTGKTYDYNYWGQGTQVTVSS	low polyreactivity
QVQLVESGGGLVQAGGSLRLSCAASGSTFYYYTMGWYRQAPGKERELVAVISRDGRTNYADSVKGRFTISRDNAKNTVYVQMNSLKPEDTAVYYCNADYYWNGVYHYDYWGQGTQVTVSS	low polyreactivity
QVQLVESGGGLVQAGGSLRLSCAASGRTFYGYAKGWYIQAPGKERELVAAITRAGSTNYADSVKGRFTISRDNAKNTFYLQLNSLKPEDTAVYYCAAVRVHTDRYNYWGQGTQVTVSS	high polyreactivity
QVQHVESGGGLVQAGGSLRLSCAASGSIFVFYAMGWYRQAHGKEREFVASITSSGGSTYYADSVKGRFTISRDNAKNTVYLQMNSLKPEDTAVYYCAARKYRNPYYYRYYYWGQGTQVTVSS	high polyreactivity
QVQIVESGGGLVQAGGSLRLSCAASGRIFRRYAMGWYRQAPGKEREFVAAISYGGGATYYADSVKGRFTISRDNAKNTFYLQMNSLKPEDTAVYYCNAEVPKSLLLYYPWGYGYWGQGTQVTVSS	low polyreactivity
QVQLVASAAGLVQAVGSLRLSCAASASTIGYYAMGWSRQAPGKERELVAAISWSGGSTYYADSVKGRFTISRDNAKNTVYLQMNSLKPEDTAVYFCAADTYPDYYLVEYYYWGQGTQVTVSS	low polyreactivity
QVQLVESGGGLVQAGGSLRLSCAASVIIFRLYGMGWYRQAPGKEREFVATITWRGGRTNYADSVKGRFTISRDNAKNTVYLQMNSLKPQDTAVYYCAKVVRYARSNEYDSWGQGTQVTVSS	low polyreactivity
QVQLVESGGGLVQAGGSLRLSSAASGIIFTYYAMGWYRQAPGKERELVAAISSGGGSTYYADSVKGRFTISRDNAKNTVYLQMNSLKPEDTAVYYCNADYYFVYTYLHDYWGQGTQVTVSS	low polyreactivity
QVQLVESGGGLVQAGGSLRLSCAASGSIFPYAMGWYRQSPGKQRQLVAVISWSGASTYYADSVKGRFTISRDNAKNTVDLQMNSLKPEDTAVYYCAVYRYYKLVHLYGYDYWGQGTQVTVSS	high polyreactivity
QVQLVESGGGLVQAGGSLRLSCAATGRTFVSNAMGWYRQAPGKERELVAAISSSTGSTYYADSVKGRFTISRDNAKNTVYLQMNSLKPEDTAVYYCAAYLLGRSPYDYWGQGTQVTVSS	low polyreactivity
QVQLEESGGGLVQAGGSLRLSCAASGLTFEWYTMGWYRQAPGKERELVAVITVSGSSTYYADSVKGRFSISRDNAKNTVYLQMNSLKPEDTAVYYCNADWSFYSYTLYDYWGQGTQVTVSS	low polyreactivity
QVQLVESGGGLVQAGGSLRLSCAASGFIFRYYTMGWYRQAPGKERELVARISSGGSTTYADSVKGRFTISRDNAKNTVYLQMNSLKPEDTAVYYCHARVKRWYFGNANHSPEYDYWGKGTQVTVSS	low polyreactivity
QVQLVESGGGLVQAGGSLRLSCAASGRTFKYYAMGWYRQAPGKERELVATITWSGTSTNYADSVKGRFTISRDTANNSVYLQMNSLKPEDTAVYYCAARSKRRNYDYWGQGTQVTVSS	high polyreactivity
QVQLVESGGGLVQAGGSLRLSCAASGSICISYAMGWYRPAPGKERELVAAINYSGGSTYYADSVKGRFTISRDNAKNTVYLQMNSLKPDDTAVYYCAKRSTYRYYGYKLRDYWGQGTQVTVSS	low polyreactivity
QVQLVESGGGLVQAGGSLRLSCAASGITFRGYAMGWYRQAPGTERELVAAITGSGTSTYADSVKGRFTISRDNAKNTVYLQMNILKPEDTAVYYCAADTYDPFYYGYGYWGQGTQVTVSS	low polyreactivity
QVQLVESGGGLVQAGGSLRLSCAASGGISHRYAMGWYRQAPGKERELVAAITASGTSTNYADSVKGRFTISRDNAKNTVYLQMNSLKPEDTAVYYCAARYYSFFYPYYYWGQGTQVTVSS	high polyreactivity
